{"source": "the DeepSol protein solubility set", "data": [{"test": "soluble on expression in E. coli; label from the status in PepcDB or PDB records", "values": [{"sequence": "MGSDKIHHHHHHMRRQLNGQMFVWLHVFACAARHLSFTRCAEELHITPGAVSQQMRQLEERLGYRLFLRRARGVELSAEGQRLAQTVAEAYGSIEAELLRLDAGEIRGTLRVRSIPSFLAKWLTPRLPRFQQRYPDIELRLVAEDSAQALTPGDFDLAIDLNDGSYPGMLSTPLLDEQIFPVCSPALLRGRPPLHGPADLAHYPLLHDITAWRGSSEYAEWEFYLEGIGAAGLDVRRGHTFNRNHLTIEAAIAGIGVAIARRTLLNDELERGALIVPFGVPIANHKRYVVHYPPGGLNQPGARAVHDWLVEEARGFRVLHPLNKE", "soluble on expression in E. coli": "not soluble"}, {"sequence": "MGSDKIHHHHHHMKNSPLNGLNGLKAFLETKPKEYHKFDPSRFIQIYKDFKNAFFEIQAKVIHVVGTNGKGSTGRFLTLLLADQNFKVLHFTSPHVFEFRERFFLNGSVVGESVLENAHQQLQSHAFSSACSYFEYATLLAVMLAKDCDYLVLEAGLGGEFDSTNALKKTLSVFTPIDYDHKEFLGDSLESIAQTKLKAMGSLSIIAPQQELVLNAAQKIAKEKHAKLIVVQNEISKGVRDYIERYHLARFLAMNLEVALKAFETLLPCNKQEVLKNLKPLNLIGRCELLSPNILIDVGHNPHSAKALKEEIKRIFNAKIILIYNCYQDKDAFLVLEILKPVIKKVLILELHEERVIKLEKLKGILETLGLEYALFEDVEENENYLVYGSFLVANAFYKRYQEKRD", "soluble on expression in E. coli": "not soluble"}, {"sequence": "MSERESLSGADNAWRRMGTPTNLMTITGVMMFDERMTYEDLCNRLEERLLRFERFQQRIGGRKRRFRQPYWETVDGFDVEPHVYHISLPEPQDKATFEAFVGKLMSRPLDESRPLWEAYLVDGAGPGEGNAVAFRLNHSIGDGFALLYVLLGLVDNPGDIELPSGMVSAPDDIGDDADSGADGGNGSDESDVASGDGQPADTDSKSDGERGSSGLPSPVSAAGTAATGVATGYDLLFGDDDPDTSLRGELGQTKRAAWTDEIPLEQVRTVCEAQPHRATINDVLLAALAGALRRLLEDRGEPVDGMELHGTVPVNLKPMAERDGSLGNNFGLVFLPLPVGTEPLQERISIIHEWMDGKRAGIQAFLMYALLTIGGHVPEYVQKKVMTLFEDRATGVVTNVPGPTDAIQFAGREITDMIFWVPQANEQGIGISIFSYDGNVRVGVAADENLLGAPGELAAAFEAEMEALLEDAELEHHHHHH", "soluble on expression in E. coli": "soluble"}, {"sequence": "MAHHHHHHMTFEFGEECNNLARAAHQTKNYGDAISLYDRALTMRREKYGPIHKKCAATLHNIGRVFIDMKEYGAAENAFTEAAAIYEQVEGDKSLEYAESLELLALCYTHLKFLDEAEKAFKDSIRIFRDQCYNYGNNSWLPDDKTPPAEPNKHPLSSAAHALADCAALFLFRRQEHQAVAFLEEALEIRRFLYSRHVKFRPMIAQTLNKLCELKKSLDDAVGAEMCINECLEICIETLGRDHPATAQATSSKAGLLAAKKQFRDALRLYEESTRTYAMALGKDAPLFGQELMKLGRCQELCNDVVNAEKTFRRGVEIITNGFGPNSLQLAEANTFYGSLLARRLDIDQAVGMFRDAIRIRKSVDKHDPQLAYLYQKIGDAYAMRREPHAEAYFLLAVDAFKQNATIEPLQRTYMTDVLDDLGLFYLDFQHYEKAEKCFKEALDTRIEMLGENHATVAYSYSNFALLYLQRQDYANCEKMAEAALDIYSKTARSNVLAQADVHTTLGQCYHQQNQFAKALEMHEKALNVRRTRGDTTETAVAESLNQIARVYITMKRYGKAYRHVKEARRLVWQFNVEITQPLRNEIVKTEQMIPPMEEWTNEERAEAQVMIGDGSSAGNGSAATTATGA", "soluble on expression in E. coli": "not soluble"}, {"sequence": "TGKFKWDLGGNISFVKNKLLSLIEGSEMYVVPSSGSNLLGGSMHALINGEPISTFYMLKMEGIYQRDDEVPAKLYAKGVRAGDVRYFDYNEDGDITDADRVNVGKAIPDFYGGITSNFSYKGFDLSLFGQFSVGGKVMAAWRGVNGSEGTDHLGLALSNVKVGDRGESVEQFFNISKEVANGYWRGEGTSNSIPRPVRIGVHTGYDYDYNVQTSTRYLEDASYFKLKTVTLGYTLPESITKKIHVNSLRFYVSADNLLAFTKYSGYDPETSFSGSPGDSNYGVDFGLQPVLRTFIFGLNLNF", "soluble on expression in E. coli": "not soluble"}, {"sequence": "AIAMQISDTYNQKHSLFNAMNRFIGAVNNMDQTVMVPSLLRDVPLDMEVKDEVHNTIGATNYFSRTDMHGYYILLKSIRNDIEWGVVQGEDRKKDKLSNMEISRLEDGDGEEDLEKQFHYHLSGLHTVLNKLTRKAHILTNRYKEEIGFGSWGH", "soluble on expression in E. coli": "soluble"}, {"sequence": "MAISDSYLKSCLGRERDKVEEKADRDGLWVRISKKGAVTFFYRFRFLGKQDKMTIGSYPEFGLKAAREEVTKWAAILARGENPRIRQSLDKAKINSQYTFEELFREWHAMVCVQKETSDQILRSFELHVFPKLGKYPAHQLTLHNWLTVLDRLAQGYTEITRRVISNGRQCYSWAVKRQLLEVNPLSEMSGRDFGIQKKMGERTLDRKEIAIVWRAIEDSRLIERNKILYKLSLIWACRVGELRQAEVSHFDFEEGVWTVPWENHKTGRKSKKPIIRPIIPEMLPLIQRAIELAPGRFVFSKYADKPMSEGFHMSISSNLVKFMLKAYNEQVPHFTIHDLRRTARTNFSELTEPHIAEMMLGHKLPGVWSVYDKYTYIEEMREAYSKWWARLMSIIEPDVLEFTPRQTG", "soluble on expression in E. coli": "not soluble"}, {"sequence": "DQVSSLSSKYAVRLYEIIISWRAAGKTPMFSTMELRERLGMMPDEYQKMELFKRKVLDFAVKQINDKTDISITYEQHKEGRKIVGFTFSILHKIGSKDIPLENQSELFAGMTDLEAGTIRVRAEAYIASLIAKGQNVTKAHRLNILKKAVEERWGFEDVAKDNGAKNPENKNAKVVLNEWEKISNGTRFKDKDGTIWVKDSGMLRTEGTNRWIADSQIAKLFPMLTVMVEEGI", "soluble on expression in E. coli": "not soluble"}, {"sequence": "SNASDKGKLSLQDVAELIRARACQRVVVMVGAGISTPSGIPDFRSPGSGLYSNLQQYDLPYPEAIFELPFFFHNPKPFFTLAKELYPGNYKPNVTHYFLRLLHDKGLLLRLYTQNIDGLERVSGIPASKLVEAHGTFASATCTVCQRPFPGEDIRADVMADRVPRCPVCTGVVKPDIVFFGEPLPQRFLLHVVDFPMADLLLILGTSLEVEPFASLTEAVRSSVPRLLINRDLVGPLAWHPRSRDVAQLGDVVHGVESLVELLGWTEEMRDLVQRETGKLDGPDK", "soluble on expression in E. coli": "soluble"}, {"sequence": "MDIVTLKDFYASVLGKRVQETLCGQLNLCWPDLTGKRVMGFGYALPYLSALRMRAQQCLAFMPAGQGALPWPCADKVATALVFEEDLPLPDASIDCILLIHALEYTENSFETLNEIWRVLVPNGQLIVIVPNRSGLWARNACTPFGYGEPYSRQQIVRLFEKTHFVSGSIQEVVHYMPSSGSVSRFFSFFYEPVARHLLPYFGGLLICQAQKRVYQGLEHHHHHH", "soluble on expression in E. coli": "not soluble"}, {"sequence": "MRSQRIVHIVSCHAEGEVGDVIVGGVAAPPGATLWEQSRWIARDQDLRNFVLNEPRGGVFRHANLLVPAKDPRAQMGWIIMEPADTPPMSGSNSLCVATVLLDSGILPMREPLTRLLLEAPGGLIEARAECRDGKAERVEIRNVPSFADRLDAWIEVEGLGSLQVDTAYGGDSFVIADARRLGFALRADEAAELVATGLKITHAANEQLGFRHPTNPDWDHLSFCQLAAPPERRDGVLGANNAVVIRPGKIDRSPCGTGCSARMAVLQAKGQLRVGERFVGRSIIGSEFHCHIESLTELGGRPAILPCLSGRAWITGIHQYLLDPDDPWPQGYRLSDTWPGGHC", "soluble on expression in E. coli": "not soluble"}, {"sequence": "MTIVIGFEGSANKIGIGIIKDGEVLSNPRRTYITPPGQGFLPGETAKHHRSVILTVLQEALDEAGLKAADIDCVAYTKGPGMGAPLVTVAIVARTVAQLWGKPLLGVNHCIGHIEMGRLITNAQNPTVLYVSGGNTQVIAYSERRYRIFGETIDIAVGNCLDRFARVIKISNDPSPGYNIEQMAKKGNKYIELPYTVKGMDVSFSGILSYIEDAAHKMLSTDQCTPEDLCFSLQETVFAMLVEITERAMAHCGSQEVLIVGGVGCNLRLQEMMGVMCKERGARLFATDESFCIDNGAMIAQAGWEMFRSGHVTELPDSWITQRYRTDEVEVTWRD", "soluble on expression in E. coli": "soluble"}, {"sequence": "MNNVEKAIEALKKGEIILVYDSDEREGETDMVVASQFITPEHIRIMRKDAGGLICTALHPDICNKLGIPFMVDILEFASQKFKVLRELYPNDIPYDEKSSFSITINHRKTFTGITDNDRAFTIKKLAELVKEGRFNDFGKEFRSPGSVTLLRAAEGLVKNRQGHTEMTVALAELANLVPITTICEMMGDDGNAMSKNETKRYAEKHNLIYLSGEEIINYYLDKYLKD", "soluble on expression in E. coli": "soluble"}, {"sequence": "TVHKQDGKVLEIELSSLKEALSFVSLIDGYYRLTADAHHYLCKEVAPPAVLENIHSNCHGPISMDFAISKLKKAGNQTGLYVLRCSPKDFNKYFLTFAVERENVIEYKHCLITKNENGEYNLSGTKRNFSNLKDLLNCYQMETVRSDSIIFQFTKCCPPKPKDKSNLLVFRTNGISDVQISPTLQRHNNVNQMVFHKIRNEDLIFNESLGQGTFTKIFKGVRREVGDYGQLHKTEVLLKVLDKAHRNYSESFFEAASMMSQLSHKHLVLNYGVCVCGEENILVQEFVKFGSLDTYLKKNKNSINILWKLGVAKQLAWAMHFLEEKSLIHGNVCAKNILLIREEDRRTGNPPFIKLSDPGISITVLPKDILQERIPWVPPECIENPKNLNLATDKWSFGTTLWEICSGGDKPLSALDSQRKLQFYEDKHQLPAPKWTELANLINNCMDYEPDFRPAFRAVIRDLNSLFTPDYELLTENDMLPNMRIGALGFSGAFEDRDPTQFEERHLKFLQQLGKGNFGSVEMCRYDPLQDNTGEVVAVKKLQHSTEEHLRDFEREIEILKSLQHDNIVKYKGVCYSAGRRNLRLIMEYLPYGSLRDYLQKHKERIDHKKLLQYTSQICKGMEYLGTKRYIHRDLATRNILVENENRVKIGDFGLTKVLPQDKEYYKVKEPGESPIFWYAPESLTESKFSVASDVWSFGVVLYELFTYIEKSKSPPVEFMRMIGNDKQGQMIVFHLIELLKSNGRLPRPEGCPDEIYVIMTECWNNNVSQRPSFRDLSLRVDQIRDSIAA", "soluble on expression in E. coli": "not soluble"}, {"sequence": "MSLSNMTQQTRTQQARETMKRVYRYQAANQTRSVIRRSGKTRFIKDTDWERGVFWSCVAAAWLATDDAEYLEGVMNYTLHTGFRPGPNLRFADDLICCQAYLDVWPQIAVPEALEPTIKAVSAMVDEPKPGREDWWWCDSLFMAPATFAALSQRTGDARYLAYMDTAFWDAVDYLRDPDSGLFYRDHRYIPDGNGTELREENGEKVFWSRGIGWVLAAIPRLLARMPEDYTGRQRYLDLFTDLADKVIRYQQADGLWRTSLLDPQRFPAPESSATALFCYGLSWGINQGILAPETYLPVVEKAWDALQGCIHDNGMMGWVQLPAFNPRDVKFEHNMDYGAGAYLLAASEMLRLAEGHHHHHH", "soluble on expression in E. coli": "soluble"}, {"sequence": "MGSDKIHHHHHHMTEGGFDPALLVQSWPKPSKPRPIVTFGSGSIVGDAHFPAYRKAGFPIAGLYDPDQAKATTLADKWGVTAFRSVGEAAAVQDAIFDLATPPGRHAEILKDLPDGAVALIQKPMGNYLGEATEILEICRAKNLKAAVNFQLRFAPMMLALKDAIAKGWLGEIVDFDAWLALATPWELWEFLLKAPRVEIAMHSIHYLDLIRQLLGDPKGVHAKTLGHPNHKVAQTRTSAILDYGDTVRCALSINHDHKFGRRHQACEFRICGTEGAAYLKLGLNLDYPRGEPDILEIHPKGGTDWIAVPLAGEWFPDAFVGRMANVQRFASGEDDELVSSVEDAWSTMALVEAAYKSSAAPATLIAERP", "soluble on expression in E. coli": "not soluble"}]}]}
